Test system: Indicator molecule containing the cleavable sequence GPQGIFGQ with a terminal biotin group connected via a polyethylene glycol spacer/linker (intact)

Active MMP-9 (Alere San Diego), sequence (chain, as listed by the source): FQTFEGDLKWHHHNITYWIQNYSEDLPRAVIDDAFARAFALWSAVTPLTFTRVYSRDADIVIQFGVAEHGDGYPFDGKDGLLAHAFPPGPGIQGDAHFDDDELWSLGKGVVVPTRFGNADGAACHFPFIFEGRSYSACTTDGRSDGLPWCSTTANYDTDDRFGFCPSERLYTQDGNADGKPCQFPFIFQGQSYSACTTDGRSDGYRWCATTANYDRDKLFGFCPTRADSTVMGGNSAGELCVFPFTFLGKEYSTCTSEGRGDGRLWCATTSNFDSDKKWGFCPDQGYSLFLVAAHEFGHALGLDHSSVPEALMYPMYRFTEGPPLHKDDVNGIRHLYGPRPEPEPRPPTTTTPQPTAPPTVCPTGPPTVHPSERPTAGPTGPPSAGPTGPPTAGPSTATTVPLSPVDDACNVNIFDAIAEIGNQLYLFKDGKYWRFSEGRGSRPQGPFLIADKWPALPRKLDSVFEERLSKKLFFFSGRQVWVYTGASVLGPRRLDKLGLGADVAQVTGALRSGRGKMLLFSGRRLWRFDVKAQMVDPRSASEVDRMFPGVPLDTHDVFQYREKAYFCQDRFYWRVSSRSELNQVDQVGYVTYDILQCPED
MMP 3 (Enzo), sequence (chain, as listed by the source): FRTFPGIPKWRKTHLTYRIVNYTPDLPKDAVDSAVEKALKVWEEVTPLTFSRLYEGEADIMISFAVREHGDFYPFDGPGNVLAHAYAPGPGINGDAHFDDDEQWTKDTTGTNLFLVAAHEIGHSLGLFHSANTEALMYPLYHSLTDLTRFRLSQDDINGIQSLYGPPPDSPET
MMP 8 (Enzo), sequence (chain, as listed by the source): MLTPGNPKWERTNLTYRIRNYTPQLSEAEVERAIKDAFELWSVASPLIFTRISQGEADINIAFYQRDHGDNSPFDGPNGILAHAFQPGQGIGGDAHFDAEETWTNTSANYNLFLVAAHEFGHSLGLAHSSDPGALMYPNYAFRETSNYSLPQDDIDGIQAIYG
MMP 9 (Enzo), sequence (chain, as listed by the source): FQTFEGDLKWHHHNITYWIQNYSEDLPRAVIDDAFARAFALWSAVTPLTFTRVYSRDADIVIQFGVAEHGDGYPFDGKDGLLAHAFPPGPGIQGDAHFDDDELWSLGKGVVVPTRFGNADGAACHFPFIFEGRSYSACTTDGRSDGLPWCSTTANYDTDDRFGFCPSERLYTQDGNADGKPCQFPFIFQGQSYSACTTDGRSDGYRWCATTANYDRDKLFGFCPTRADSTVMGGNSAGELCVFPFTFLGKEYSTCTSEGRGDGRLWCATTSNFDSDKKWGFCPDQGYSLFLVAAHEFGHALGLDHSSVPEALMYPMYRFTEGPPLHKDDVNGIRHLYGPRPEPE
MMP 2 (Enzo), sequence (chain, as listed by the source): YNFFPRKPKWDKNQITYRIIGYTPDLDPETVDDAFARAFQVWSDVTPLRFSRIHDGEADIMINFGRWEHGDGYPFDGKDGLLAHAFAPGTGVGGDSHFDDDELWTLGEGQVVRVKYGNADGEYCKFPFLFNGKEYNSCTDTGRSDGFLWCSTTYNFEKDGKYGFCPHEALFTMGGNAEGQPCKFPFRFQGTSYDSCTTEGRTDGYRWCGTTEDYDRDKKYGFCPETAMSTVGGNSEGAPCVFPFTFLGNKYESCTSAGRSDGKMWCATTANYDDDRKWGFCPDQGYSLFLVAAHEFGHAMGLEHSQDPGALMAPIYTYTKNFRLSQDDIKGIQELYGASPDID
MMP 10 (Enzo), sequence (chain, as listed by the source): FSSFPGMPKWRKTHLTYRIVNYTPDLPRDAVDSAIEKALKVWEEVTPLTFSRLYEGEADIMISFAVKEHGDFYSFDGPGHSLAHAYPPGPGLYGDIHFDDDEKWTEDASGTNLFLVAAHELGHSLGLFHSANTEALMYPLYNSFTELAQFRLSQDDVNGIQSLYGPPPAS

## Active MMP-9 (Alere San Diego)
  OD405 (streptavidin plate ELISA with CF1522-AP) at 0.39 ng/ml MMP9: 0.14 OD405
  OD405 (streptavidin plate ELISA with CF1522-AP) at 0.78 ng/ml MMP9: 0.14 OD405
  OD405 (streptavidin plate ELISA with CF1522-AP) at 1.56 ng/ml MMP9: 0.14 OD405
  OD405 (streptavidin plate ELISA with CF1522-AP) at 3.13 ng/ml MMP9: 0.13 OD405
  OD405 (streptavidin plate ELISA with CF1522-AP) at 6.25 ng/ml MMP9: 0.17 OD405
  OD405 (streptavidin plate ELISA with CF1522-AP) at 12.50 ng/ml MMP9: 0.18 OD405
  OD405 (streptavidin plate ELISA with CF1522-AP) at 25.00 ng/ml MMP9: 0.27 OD405
  OD405 (streptavidin plate ELISA with CF1522-AP) at 50.00 ng/ml MMP9: 0.5 OD405
  detectable limit for MMP-9 (lateral flow, sample volume of 75 µl): approximately 4 ng/ml
  reader value (lateral flow, CF1522 gold) at 0.9765625 ng/ml MMP9: 338 reader units
  reader value (lateral flow, CF1522 gold) at 1.953125 ng/ml MMP9: 343 reader units
  reader value (lateral flow, CF1522 gold) at 3.90625 ng/ml MMP9: 413 reader units
  reader value (lateral flow, CF1522 gold) at 7.8125 ng/ml MMP9: 524 reader units
  reader value (lateral flow, CF1522 gold) at 15.625 ng/ml MMP9: 882 reader units
  reader value (lateral flow, CF1522 gold) at 31.25 ng/ml MMP9: 2030 reader units
  reader value (lateral flow, CF1522 gold) at 62.5 ng/ml MMP9: 3830 reader units
  reader value (lateral flow, CF1522 gold) at 125 ng/ml MMP9: 5580 reader units
  reader value (lateral flow, CF1522 gold) at 250 ng/ml MMP9: 6220 reader units
  reader value (lateral flow, CF1522 gold) at 500 ng/ml MMP9: 6730 reader units
  reader value (lateral flow, CF1522 gold) at 1000 ng/ml MMP9: 6770 reader units
  sensitivity of the MMP9 standard curves (ELISA and Lateral Flow): sensitivity down to 4 ng/ml

## MMP 2 (Enzo)
  Reader value (lateral flow, CF1522 gold) at 0.5 µg/ml MMP: 1610 reader units

## MMP 3 (Enzo)
  Reader value (lateral flow, CF1522 gold) at 0.5 µg/ml MMP: 336 reader units

## MMP 8 (Enzo)
  Reader value (lateral flow, CF1522 gold) at 0.5 µg/ml MMP: 1140 reader units

## MMP 9 (Enzo)
  Reader value (lateral flow, CF1522 gold) at 0.5 µg/ml MMP: 3840 reader units

## MMP 10 (Enzo)
  Reader value (lateral flow, CF1522 gold) at 0.5 µg/ml MMP: 444 reader units

Reference: patent US20160238596
